Experimental data from PMC3285597.

Tested on: human Oct-1 E30D/M33L (rodent-like);VP16ΔC;HCF-1N380 (beta-propeller domain) (Homo sapiens;HSV-1;Homo sapiens)
Assay: EMSA
Details: 10 mM Hepes pH 7.9, 75 mM KCl, 1 mM EDTA, 10 mM DTT, 1 µg poly-dI-dC, up to 4 µl reticulocyte lysate, room temperature 20 min; 4% native gel in 1x …

With ICP0 (OCTA+)TAATGARAT probe the binding signal (fold reduction of VIC vs wild type Oct-1) was greater than 100.
